Values quoted from earlier work, collected in publication PMC13312411.
Where two headings read alike, the source gives them in different places.

What was measured:
[1] = biological target: Hsc70 (Homo sapiens) (UniProt P11142)
[2] = biological target: Hsc70 (Homo sapiens) (UniProt P11142); remark: listed apart in the source

Sequence of UniProt P11142 (P11142 2-646): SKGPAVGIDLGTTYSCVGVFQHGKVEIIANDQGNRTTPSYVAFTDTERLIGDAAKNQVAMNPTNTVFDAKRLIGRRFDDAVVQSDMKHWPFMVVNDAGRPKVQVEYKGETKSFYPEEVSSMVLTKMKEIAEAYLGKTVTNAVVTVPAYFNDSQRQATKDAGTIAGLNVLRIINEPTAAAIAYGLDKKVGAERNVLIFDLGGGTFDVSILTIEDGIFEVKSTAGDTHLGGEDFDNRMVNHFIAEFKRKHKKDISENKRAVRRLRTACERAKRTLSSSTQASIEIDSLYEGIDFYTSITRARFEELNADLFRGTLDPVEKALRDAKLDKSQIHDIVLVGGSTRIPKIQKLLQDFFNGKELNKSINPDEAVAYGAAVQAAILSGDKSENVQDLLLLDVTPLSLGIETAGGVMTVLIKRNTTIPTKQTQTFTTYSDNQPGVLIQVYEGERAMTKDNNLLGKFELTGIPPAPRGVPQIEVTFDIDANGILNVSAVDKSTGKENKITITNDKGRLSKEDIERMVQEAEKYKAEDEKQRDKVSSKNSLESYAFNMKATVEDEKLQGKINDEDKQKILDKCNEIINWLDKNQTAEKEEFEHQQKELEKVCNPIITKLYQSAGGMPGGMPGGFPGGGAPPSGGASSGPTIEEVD

| Kd [1] [µM] | Kd [2] [µM] | Substance |
| --- | --- | --- |
| 400 | – | DNAJB6 JD-GF (open) JD-GF (from UniProt O75190) |
| – | 3 | DNAJB6 J-domain JD (from UniProt O75190) |
